System: Lenti-X 293T cells
Test: YFP fluorescence quenching anion reporter plate reader assay of engineered receptors stimulated with acetylcholine or a non-native ligand
Format: cell-based
Conditions: for percent quench of YFP fluorescence, 30 nM TC-6683: TC-6683 30 nM; for percent quench of YFP fluorescence, 300 nM TC-6683: TC-6683 300 nM; for percent quench of YFP fluorescence, 3 uM TC-6683: TC-6683 3 uM; for percent quench of YFP fluorescence, 30 uM TC-6683: TC-6683 30 uM; for percent quench of YFP fluorescence, 100 uM TC-6683: TC-6683 100 uM; for percent quench of YFP fluorescence, 10 uM ach: acetylcholine 10 uM; for percent quench of YFP fluorescence, 100 uM ach: acetylcholine 100 uM; for percent quench of YFP fluorescence, 1 mM ach: acetylcholine 1 mM; for percent quench of YFP fluorescence, 3 mM ach: acetylcholine 3 mM
Summary of the method: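 Lenti-X 293T cells carrying a YFP anion reporter were transiently transfected with channel DNA and assayed the next day in HEPES-buffered ECS at pH 7.2. Ligand (acetylcholine or non-native ligand) was added in NaI-substituted ECS. Percent quench was the mean of the last 10 s relative to the 15 s pre-addition baseline.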

B1: CODA342: engineered chimeric LGIC receptor, L131R in SEQ ID NO: 33 (protein)
chain: MRCSPGGVWLALAASLLHVSLQGEFQRKLYKELVKNYNPLERPVANDSQPLTVYFSLSLLQIMDVDEKNQVLTTNIWLQMSWTDHYLQWNVSEYPGVKTVRFPDGQIWKPDILLYNSADERFDATFHTNVRVNSSGHCQYLPPGIFKSSCPMDLKNFPMDVQTCKLKFGSWSYGGWSLDLQMQEADISGYIPNGEWDLVGIPGKRSERFYECCKEPYPDVTFTVTMRRRMGYYLIQMYIPSLLIVILSWISFWINMDAAPARVGLGITTVLTMTTQSSGSRASLPKVSYVKAIDIWMAVCLLFVFSALLEYAAVNFVSRQHKELLRFRRKRRHHKSPMLNLFQEDEAGEGRFNFSAYGMGPACLQAKDGISVKGANNSNTTNPPPAPSKSPEEMRKLFIQRAKKIDKISRIGFPMAFLIFNMFYWIIYKIVRREDVHNQ
modifications: synthetic sequence of chimeric LGIC
Q: Which results are given for B1?
A: YFP fluorescence quenching using CNL001 (1 nM CNL001, first column): 23.532%; YFP fluorescence quenching using CNL001 (1 nM CNL001, second column): 26.054%; YFP fluorescence quenching using TC-5619/Bradanicline (1 nM brd): −7.83%; YFP fluorescence quenching using TC-5619/Bradanicline (3 nM brd): −12.89%; YFP fluorescence quenching using Varenicline (3 nM var, first column): 0.271; YFP fluorescence quenching using Varenicline (3 nM var, second column): −3.613; YFP fluorescence quenching using CNL001 (10 nM CNL001, first column): 43.69%; YFP fluorescence quenching using CNL001 (10 nM CNL001, second column): 54.016%; YFP fluorescence quenching using TC-5619/Bradanicline (10 nM brd): −10.47%; YFP fluorescence quenching using TC-5619/Bradanicline (30 nM brd): 59.48%; YFP fluorescence quenching using Facinicline (30 nM fac): −6.2; YFP fluorescence quenching using Varenicline (30 nM var, first column): −4.935; YFP fluorescence quenching using Varenicline (30 nM var, second column): −4.363; YFP fluorescence quenching using CNL001 (50 nM CNL001, first column): 59.955%; YFP fluorescence quenching using CNL001 (50 nM CNL001, second column): 56.091%; YFP fluorescence quenching using ABT-126 (50 nM abt): −18.14%; YFP fluorescence quenching using CNL001 (100 nM CNL001, first column): 64.536%; YFP fluorescence quenching using CNL001 (100 nM CNL001, second column): 58.987%; YFP fluorescence quenching using CNL002 (100 nM CNL002): −17.2%; YFP fluorescence quenching using ABT-126 (100 nM abt): −18.14%; YFP fluorescence quenching using AZD-0328 (100 nM azd0328): 1.79%; YFP fluorescence quenching using TC-5619/Bradanicline (100 nM brd): 70.19%; YFP fluorescence quenching using ABT-126 (300 nM abt): −0.81%; YFP fluorescence quenching using AZD-0328 (300 nM azd0328): 66.58%; YFP fluorescence quenching using TC-5619/Bradanicline (300 nM brd): 75.11%; YFP fluorescence quenching using Facinicline (300 nM fac): 76.75; YFP fluorescence quenching using Varenicline (300 nM var, first column): 0.282; YFP fluorescence quenching using Varenicline (300 nM var, second column): 2.32; YFP fluorescence quenching using ABT-126 (500 nM abt): 23.29%; YFP fluorescence quenching using Varenicline (500 nM var, first column): 23.777; YFP fluorescence quenching using Varenicline (500 nM var, second column): 18.376; YFP fluorescence quenching using CNL001 (1 uM CNL001, first column): 65.987%; YFP fluorescence quenching using CNL001 (1 uM CNL001, second column): 64.312%; YFP fluorescence quenching using CNL002 (1 uM CNL002): 8.12%; YFP fluorescence quenching using ABT-126 (1 uM abt): 45.76%; YFP fluorescence quenching using TC-5619/Bradanicline (1 uM brd): 77.42%; YFP fluorescence quenching using TC-6987 (1 uM tc6987): 2.51; YFP fluorescence quenching using Varenicline (1 uM var, first column): 66.17; YFP fluorescence quenching using Varenicline (1 uM var, second column): 66.088; YFP fluorescence quenching using ABT-126 (3 uM abt): 53.03%; YFP fluorescence quenching using ABT-126 (10 uM abt): 64.08%; YFP fluorescence quenching using Facinicline (10 uM fac): 82.16; YFP fluorescence quenching using TC-6987 (10 uM tc6987): 46.22; YFP fluorescence quenching using CNL002 (30 uM CNL002): 57.24%; YFP fluorescence quenching using ABT-126 (30 uM abt): 71.98%; YFP fluorescence quenching using AZD-0328 (30 uM azd0328): 80.55%; YFP fluorescence quenching using Facinicline (30 uM fac): 81.71; YFP fluorescence quenching using ABT-126 (50 uM abt): 73.98%; YFP fluorescence quenching using ABT-126 (100 uM abt): 73.51%; YFP fluorescence quenching using TC-6987 (500 uM tc6987): 68.33; percent quench of YFP fluorescence, 30 nM TC-6683: −16.26%; percent quench of YFP fluorescence, 300 nM TC-6683: −22.45%; percent quench of YFP fluorescence, 3 uM TC-6683: −13.48%; percent quench of YFP fluorescence, 30 uM TC-6683: −12.68%; percent quench of YFP fluorescence, 100 uM TC-6683: −10.33%; percent quench of YFP fluorescence, 10 uM ach: −2.57%; percent quench of YFP fluorescence, 100 uM ach: −3.18%; percent quench of YFP fluorescence, 1 mM ach: 78.98%; percent quench of YFP fluorescence, 3 mM ach: 75.75%

B2: CODA337: engineered chimeric LGIC receptor, L131N in SEQ ID NO: 33 (protein)
chain: MRCSPGGVWLALAASLLHVSLQGEFQRKLYKELVKNYNPLERPVANDSQPLTVYFSLSLLQIMDVDEKNQVLTTNIWLQMSWTDHYLQWNVSEYPGVKTVRFPDGQIWKPDILLYNSADERFDATFHTNVNVNSSGHCQYLPPGIFKSSCPMDLKNFPMDVQTCKLKFGSWSYGGWSLDLQMQEADISGYIPNGEWDLVGIPGKRSERFYECCKEPYPDVTFTVTMRRRMGYYLIQMYIPSLLIVILSWISFWINMDAAPARVGLGITTVLTMTTQSSGSRASLPKVSYVKAIDIWMAVCLLFVFSALLEYAAVNFVSRQHKELLRFRRKRRHHKSPMLNLFQEDEAGEGRFNFSAYGMGPACLQAKDGISVKGANNSNTTNPPPAPSKSPEEMRKLFIQRAKKIDKISRIGFPMAFLIFNMFYWIIYKIVRREDVHNQ
modifications: synthetic sequence of chimeric LGIC
Q: What does the source list for B2?
A: YFP fluorescence quenching using CNL001 (1 nM CNL001, first column): 76.917%; YFP fluorescence quenching using CNL001 (1 nM CNL001, second column): 79.554%; YFP fluorescence quenching using TC-5619/Bradanicline (3 nM brd): 71.02%; YFP fluorescence quenching using Varenicline (3 nM var, first column): 3.093; YFP fluorescence quenching using Varenicline (3 nM var, second column): 12.327; YFP fluorescence quenching using CNL001 (10 nM CNL001, first column): 79.479%; YFP fluorescence quenching using CNL001 (10 nM CNL001, second column): 79.506%; YFP fluorescence quenching using TC-5619/Bradanicline (30 nM brd): 78.43%; YFP fluorescence quenching using Facinicline (30 nM fac): 82.25; YFP fluorescence quenching using Varenicline (30 nM var, first column): 77.097; YFP fluorescence quenching using Varenicline (30 nM var, second column): 77.653; YFP fluorescence quenching using CNL001 (50 nM CNL001, first column): 81.465%; YFP fluorescence quenching using CNL001 (50 nM CNL001, second column): 81.297%; YFP fluorescence quenching using ABT-126 (50 nM abt): −11.64%; YFP fluorescence quenching using CNL001 (100 nM CNL001, first column): 82.619%; YFP fluorescence quenching using CNL001 (100 nM CNL001, second column): 81.722%; YFP fluorescence quenching using CNL002 (100 nM CNL002): 76.37%; YFP fluorescence quenching using ABT-126 (100 nM abt): 34.79%; YFP fluorescence quenching using AZD-0328 (100 nM azd0328): 82.1%; YFP fluorescence quenching using ABT-126 (300 nM abt): 60.08%; YFP fluorescence quenching using AZD-0328 (300 nM azd0328): 82.52%; YFP fluorescence quenching using TC-5619/Bradanicline (300 nM brd): 77.12%; YFP fluorescence quenching using Facinicline (300 nM fac): 83.59; YFP fluorescence quenching using Varenicline (300 nM var, first column): 79.446; YFP fluorescence quenching using Varenicline (300 nM var, second column): 79.998; YFP fluorescence quenching using Varenicline (500 nM var, first column): 80.691; YFP fluorescence quenching using Varenicline (500 nM var, second column): 80.309; YFP fluorescence quenching using CNL001 (1 uM CNL001, first column): 81.96%; YFP fluorescence quenching using CNL001 (1 uM CNL001, second column): 81.773%; YFP fluorescence quenching using CNL002 (1 uM CNL002): 80.18%; YFP fluorescence quenching using ABT-126 (1 uM abt): 65.99%; YFP fluorescence quenching using TC-6987 (1 uM tc6987): 79.06; YFP fluorescence quenching using Varenicline (1 uM var, first column): 80.258; YFP fluorescence quenching using Varenicline (1 uM var, second column): 79.509; YFP fluorescence quenching using TC-6987 (10 uM tc6987): 82.36; YFP fluorescence quenching using CNL002 (30 uM CNL002): 80.93%; YFP fluorescence quenching using AZD-0328 (30 uM azd0328): 82.32%; YFP fluorescence quenching using Facinicline (30 uM fac): 82.82; YFP fluorescence quenching using TC-6987 (500 uM tc6987): 80.19; percent quench of YFP fluorescence, 30 nM TC-6683: −11.51%; percent quench of YFP fluorescence, 300 nM TC-6683: −13.17%; percent quench of YFP fluorescence, 3 uM TC-6683: −5.46%; percent quench of YFP fluorescence, 30 uM TC-6683: 8.53%; percent quench of YFP fluorescence, 100 uM TC-6683: 14.41%; percent quench of YFP fluorescence, 10 uM ach: 28.32%; percent quench of YFP fluorescence, 100 uM ach: 81.8%; percent quench of YFP fluorescence, 1 mM ach: 71.22%; percent quench of YFP fluorescence, 3 mM ach: 73.7%
